{"source": "paper PMC6153374", "biological_target": "E. coli derived recombinant CRM197 (cross reacting material 197) (Corynebacterium diphtheriae C7 (β197))", "experiment": "crystal structure; sitting drop, room temperature; 22.9 mg/ml protein in 0.15 M NaCl, 0.01 M Tris/HCl pH 8.3 mixed 1:1 with 0.2 M lithium sulfate, 0.1 M Bis-Tris pH 5.5, 25% (w/v) PEG 3350; data at 100 K; four molecules in the asymmetric unit (two domain-swapped dimers)", "data": [{"substance": "E. coli derived recombinant CRM197 (cross reacting material 197) (natural protein)", "values": [{"measurement": "stoichiometry N", "result": 2}]}]}
